A short description of the data set: label from the status in PepcDB records.
For the sequence “MDDVVEELLRIVVESLQYEEGNLNEAVDLAINFSTKNSIFFDQLLSLSTYCGSEGSYELAYVFAKTTANLSTGSEKAVAHHNAGTASYFLNLPMEAEEHYKLALQADPKHVNTHSNYGLLLSDMGRRDEAEQQYKLALKLDPKHVNTHYNYGILLYDMRRLDEAGEQYKLALESEPKHVKTHYNYGNLLSDMGSLDEAEEQYKLALESEPNDADIHYNYGLLLYNMESLDEAEEQYKLALESEPNDASTHSNYGILLSDMGRRDEAEEQYKLALESDPKHVNTHYNYGNLLSDMGRLDEAEEQYKLALESDPKHVKTHYNYGNLLSDMGRLDEAEEQYKLALESDPNDASIHSNYGILLSDMGRHEEAEEQYKLALETDPNDADIHYNYGNLLKRMGRLDEVEKQYILALEADPKHVNTHYNYGKLLEQMGRLDEAEKQYKIAIGIDPKMPNSHGAYGLLLFFQDLEEEAIKETEVASRLCRENGDKVKEHLSLAWLYEKFANKYYNLKDYKKSGEYAEISGDEYIEAGKQAGESFKDTSLTKGYTLKGRAKIRKLEIKTPFYKDIIKRIWNKESYEIEKFTKIINCIKDASICYEKAAKASPKDNQLCNACSISMSCLSEMLDYMFAVIKQKKTPELEDKLKNWNEKLSIAKGAYQEHSKGELFIESLYKLMGCIQNLDKYKKYGTREYGRAFEECRKELTEIANNIEGPIQKIIENVTKKMDVCRLKQLPYAGTETGYIPQPNKLSQFLKWILDPKRIGIGVFGIIITVIVNHYNEYLFSLIKRTVTMLLSKI”, the protein production entry was “failed”.
In the case of “MDELIKILHAQFGHASFRPGQREVVEDVLAGRDVLAMLPTGSGKSLCYQLPAYLLPGSVLVVSPLVSLMEDQVEQLRRRGEKRVIAFHSLLDAEEKWQALASLPDFRFIYASPEMLQSAKFLTALGRTRISLFVVDEAHCISQWGYDFRPDFLKLGTVRRALGSPPCLALTATAPPEVRDDIVRTLGMERACLHIYSVDRPNIALKVEYCLSAEEKAARLVEYARQLEGPGIVYFSSRQWAEEMARRLEQSGAGRVAYYHAGMDGEQRLLVQQQFLYGQLDIVCCTSAFGMGVNKENVRFVLHFHMPAQLEAYVQEIGRAGRDGAPSLAVLFYADGDRAIAQAVAEAELPDPHELREWCWRLPDNVAVEQWNAAIEASGFTEIQKRLLTYLLEWGQTAPPGRLTAEVKEQLYERMAAAIETRRRWKRKKLHEMDDWVHTSSCRRAMIVRAFGEELMDKPGDCCDCCGLRLDAYMRDTRRLAAAPIRHWREELWQMFFSRGRQDETAK” it was “failed”; in that of “MDEQEFRKQLTLKPVEEEHIDQFNELLSYVFQVTEADIEESGFENKRAFIKSKQPILELSKVFGWFHENQLISQIAIYPCEVNIHGALYKMGGVTGVGTYPEYANHGLMKDLIQTALEEMRQDKQWISYLFPYNIPYYRRKGWEIMSDKLSFKIRDTQLPKTVPVPGMIERLAVDHPDVFDVYARFARQNHGALIRSAFNWEEYWRFENEEERTAAVYYGANQEPLGVLFYWVADEVFHIKEMFYLNQEARNGLWNFITAHFSMVYWVKGDIYKNEPLAFLLEDSQIKESIEPYYMARIVDVKAFLENFPFESTAKPFHFVVKDPVAEWNNGIFGLIWDENDQVTITDEPLGTAVHLDIQTLTCLVMNYRRPSYLHRIERIDTDKETLNSLERIFPDQEAYFSDYF”, “not failed”.
In the case of “MDFHIRKATNSDAEAIQHVATTSWHHTYQDLIPSDVQDDFLKRFYNVETLHNRISATPFAVLEQADKVIGFANFIELEKGKSELAAFYLLPEVTQRGLGTELLEVGMTLFHVPLPMFVNVEKGNETAIHFYKAKGFVQVEEFTEDFYGYPLETIRFNLNHHAFEEE” it was “not failed”; in that of “MDFHTDTIILLAGLLFIVGVITAKFSTRLGVPALVLFILVGMLVGSDGLGLIHFDFSQAHFAQLIGIFALVIILFEGGLQTKWKTVQSVAVPSLSLATFGVLITSTLVAVAAKYVLGVSWLEAYLFGAIVGSTDAAAVFAVLKEQNIKDRLATTLEAESGTNDPMAVFLTLSLIELITIGSMNPLHLFGSFLWQMGAGLILGFGLGKLGSYSINKINLDSSGLYPVFALAFALLTYSVTAMIGASGLLAVYVAALVIGNQDLTYRHSIFRFNEGFAWMMQMLMFIILGLLVFPNQLFEASIFIKGILLSLILMLVARPVAVFLTTIKMRFDWKEKLFLSWAGLRGAVPIVLATFPMTAGLENSPLFFNVVFFVVLTSALIQGSTIAHFANKLQLTGPQKTTPLHSLELVSIGKANAEIVELEMKQDTPVIGKTLEEINLPKDVLVNAIIRDEQLITPYGKTTIQADDILYVLVSKKKKRQLKELFQAKES”, “failed”; in that of “MDGALRNRSARVVDSEHRTHPPGIRRSVCWSLLALDSRLHGRTSTQDRQVGCGRLWCRPSEARCGAMKLLVTGGGGFLGQALCRGLRARGHEVVSFQRGNYPVLRSLGVGQIRGDLADPQAVRHALAGIDAVFHNAAKAGAWGSYDSYHQANVVGTQNVIEACRATGVPRLIYTSTPSVTHRATNPVEGLGADEVPYGDNLRAAYAATKAIAERAVLAANDAQLATVALRPRLIWGPGDNHLLPRLAARARAGRLRMVGDGSNLVDSTYIDNAAQAHFDAFEHLAVGAACAGKAYFISNGEPLPMRELLNRLLAAVDAPAVTRSLPFKTAYRIGAVCETLWPLLRLPGEVPLTRFLVEQLCTPHWYSMQPARRDFGYVPRISIEEGLQRLRSSSSNDIAITG”, “failed”.
In the case of “MDGFVQWMEKHFMPKASVIAAQRHLVAIRDAFVVTMPLMILGALAVLINNIPIPGYEDFLNKIFPMMYNDAPIWKSFGGNIWNGTFAIFAVLVAFLVAHNLVKSYGKDGIAAGTVSVASFFAVGGLEGMGATGLFIALIIALISGELFQRLSGNPKLVIKMPDGVPPAVAKSFAALLPAMITISLFSLITSILFALGIDNIVISFYEAVQQPFMGLANSYPSALLLAFITPFLWFFGLHGANMVDPLMQTINVPAIDANIKALEAGKAIPYIVNKPFFDSFVNLGGTGATLGLLIAIFIVGRRNKPYKVITNLSLAPGLFNINEPVMFGLPIVLNPIMFIPFILVPMVLVTVAYVATATGLVPAATFMPPWVTPPIIGGFLATKSIAGGVLAAVNLLISILIYMPFVKVATDQYLKQEAAAEAAE” it was “failed”.
Take “MDGKRVWLSDDELTRFIEQAETPHQRLAFLLAGRVGLRRSEIIEVCPQDLVDGPTGDHIRVWESYAKRDKYREPPVPQEVVTIAETLAYQQDDDEPLLDVAGSTVYRWVRRAADELEEETGDRGWQYLDVHDLRRTWGTYLLEQGVIPSVVMSFGGWEDWDTFRKHYLGEFSLEHHHHHH”: the protein production entry is “not failed”.
In the case of “MDGSIRVSAKTVDDAITEALIQLGVTSDRLEYEVIEKGSSGFLGIGMKQAVIEARRKPEPVAEVKEETIPVEEVKPSVVKEQVSEPVQEKQEEKAEEEPARKKATELAEVSDEAIKAVEAFLNDTLKAMDMDVEIVSEVDSEGALSVEMKGSNMGILIGKRGQTLDALQYLANRVANKHQDGYVRVKLDTENYRARREETLRHLAKNIAFKVKRTRRAVSLEPMNPYERRIIHAALQSDPHVTTHSEGEEPYRKVVVTLKR” it was “failed”; in that of “MDGTPGHNAINRLQLVATLAEREVMRYTPAGVPIVNCLLSYSGQAMEAQAARQVEFSIEALGAGKMASVLDRIAPGTVLECVGFLARKHRSSKALVFHISGCNVFVKDLEHHHHHH”, “failed”.
As for “MDGVGAHAHTGELRSAQALRSASLWLWPLLCWALLAGWPLGAHPLKHTAYHTVTRWDMDDGLPHNLVHAVAQGSDGVIWLGTWEGVARFNGRDFTVFDRQNTPGVELGGVFVVVRDGDGMLFGTAFDGVYRHQDGRWQQLGDASARHLAVSALLRRADGALWVGTPQTLYRIELDGRVVDVGRQAGLPRARITALSTDARGDLWIGTDVGLYQLPLGASAATAWGQAHGMADTPVRRLASDRQGGLLVAGDDGVWWWSRGGGLQRFRQGQRVDSLVMDRSGHLWMSLSAGTLVVHSGPDDPDEQIAISGVASPALLEDAEGLIWVGSTHGLFRVAEGAAHGVTIDDGLASDYVRSVLQTADGTVWVGSAVGLDRWRDGQIARVPFSRGSAGRVLEQSVLALADAGDGGVWAGTYSQGVLRLDAQGAVVQRIGAAEGLSSLSVRAVLPDGDALWIGTTAGLVRWHDGRARRYTAADGVPDGSVQVLYRDAQGTIWSGTDRGMTALSPDGGTRAWLGEQDFPGQNAFDFLRDPSGDLWIASDRGLLRLRGERFQVYDHRVGLPRDKVFRVIDDGRGYLWLSSNHGVFRIARRDFDQIDAGTREQLSVEVVDRSDGMPGNQGNGSSAPAGWLTQTGQLLFPTAAGLGVIDPARVGTLQGHRVPIVIERLVVDGMVQPLDGPHRLSADTRRIAIGYAGLNFRGPDKVRYRYRLDGFDPDWVDADSATEAVYTNLPPGRFRFRVQAMSLPVDWRQAALLGETSVVLELAPPWWRRGEVIGLGVLCLASVIYGFYLWRTASYRRRQRELNVVIDKRTRELSDKNLALQQASQEREALMRQLEYRASHDVLTALPNRREAERVLQQWLDEAQAGGAPLALALADIDHFKRINDAHGHEVGDAVLRAVGEVLADQEHAHCFAARHGGEEFLLAVTGLEAAHARALFEQQRQRLGTIAIAADEATVQCTASMGMAMSNEAHSRRELLALADRRLYHAKRQGRDRLIDQ”, the entry is “failed”; as for “MDHHAQHHPRSHACVLPNGLRLHLAHDPAASRAAAWLRVAAGSHDEPSAHPGLAHFLEHLSFLGGAAFPGDERLMPWLQVRGGQVNASTLGKTTDYFFEVTAEHLGAGLARLIDMLARPLLDIDAQRREREVLEAEYLARSADEQTLIDAALALGLPAGHPLRRFAAGRRDSLALESDAFQRALREFHAAHYHAGNCQLWLQGPQTLDELERLAQRACADLPGRAPGASPPPPPLLPFACEALALRLPGPPRLVLGFALDALRGADEQTLLAFAELLGDRSPGGLLAALGEQGLGESVALRVVHRDARQALLALTFELFDGSAAAALEAAFFDWLGALRDDAASLLAARRPLLAEPTAPLERLRQRVLGLPAEIRPACLDALRADRCLRLHLDSELDGAEARWSAGFRLSVAPVAAAPPLAAQRHAWRFELPLPPSAAAEGALFLRWRFPGVPARSRFLALRQALRPLCGQARLGGVEMGLEALGEDWSLSLLGPRDRLEAAVRPALARLLAAPPDWRANGERLSSAERRRSATGLPIRQLLDALPGLLGEPLAEVDDWRRTRWDALVMQAAMPDPRWMPGQAAGERLEPLPPRPGRHRRELAVDGESALLLFCPLPTQEVPMEAAWRLLARLHEPAFQRRLRDELQLGYALFCGFREVGARRGLLFAAQSPRACPARLLEHMETFLQRSAEALAQLPARRLAGLRKALADDLRRAPGSFAERARRAWAEHLGGGAGRSRLLAEAALGLSGDDLLAAQARLLEARGGWWVLSSRR”, “failed”.
As for “MDHHHHHHHHMPRTTGMNVAVVGGGISGLAVAHHLRSRGTDAVLLESSARLGGAVGTHALAGYLVEQGPNSFLDREPATRALAAALNLEGRIRAADPAAKRRYVYTRGRLRSVPASPPAFLASDILPLGARLRVAGELFSRRAPEGVDESLAAFGRRHLGHRATQVLLDAVQTGIYAGDVEQLSVAATFPMLVKMEREHRSLILGAIRAQKAQRQAALPAGTAPKLSGALSTFDGGLQVLIDALAASLGDAAHVGARVEGLAREDGGWRLIIEEHGRRAELSVAQVVLAAPAHATAKLLRPLDDALAALVAGIAYAPIAVVHLGFDAGTLPAPDGFGFLVPAEEQRRMLGAIHASTTFPFRAEGGRVLYSCMVGGARQPGLVEQDEDALAALAREELKALAGVTARPSFTRVFRWPLGIPQYNLGHLERVAAIDAALQRLPGLHLIGNAYKGVGLNDCIRNAAQLADALVAGNTSHAP”, the entry is “not failed”.

(Values after a protein production outcome set (Wang et al. 2014).)
